The values that follow come from the supplement of paper PMC10567573.

± gives the standard deviation.

The data set is described as follows: protein stability index of a GFP-peptide fusion (GPS, HEK-293T) (PSI 1-6); higher = more stable. To be noted: c terminus: a fixed tail appended.
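Note: 24-mer peptide tiles fused after GFP, lentivirally expressed, FACS-sorted into six equal bins by GFP/DsRed ratio, decoded by Illumina sequencing, PSI is the read-weighted mean bin number.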

Turning to IQFKKHEEEGIETQYFAELLMTSG [CNOT7], the protein stability index by setting is: (treatment: DMSO) 2.82 ± 0.21; (treatment: MLN4924 1 uM, 8 h) 2.82 ± 0.35.
Consider RRFIQSCPIIRIPNRFLRGHRPPP [KLHDC10], for which the protein stability index reads like this: (treatment: DMSO) 2.67 ± 0.18; (treatment: MLN4924 1 uM, 8 h) 2.73 ± 0.43.
The like results for RVQVLKNEVRRGSPVLLGWVEQAY [TIAF1] were, in that order, 2.37 ± 0.18 and 2.21 ± 0.37.
In the same order, the values of KQTGIVFGSFLLLLFSLTQFSVVS [RTN1] are 3.08 ± 0.46 and 3.48 ± 0.38.
In the same order, the values of PQSPDFLDITNPKAVLENALRNFA [UFD1] are 2.86 ± 0.35 and 2.55 ± 0.57.
Regarding AQRHRGSAKDGGPQPPDAPQLVSS [PLEKHN1], the protein stability index runs as follows: (treatment: DMSO) 5.04 ± 0.51; (treatment: MLN4924 1 uM, 8 h) 5.22 ± 0.28.
The like results for SLAETECRYATQLQQIQGLIGGLE [KRT15] were, in that order, 2.83 ± 0.24 and 2.91 ± 0.32.
In the same order, the values of ATPGGGTGEAARPHKGLNLHPLLS [PCDHGC5] are 3.74 ± 0.17 and 3.83 ± 0.21.
In the same order, the values of LQELLTHDTKDQSPSRAPGLRQRA [HMOX1] are 4.33 ± 0.26 and 4.62 ± 0.33.
Regarding RNQYEALVETNRREVEQWFATQTE [KRT33B], the protein stability index is, setting by setting: (treatment: DMSO) 4.37 ± 0.28; (treatment: MLN4924 1 uM, 8 h) 4.27 ± 0.48.
For the sequence EEEEAEDEEVVATAGDRLTEFRKG [IRX6], the protein stability index (treatment: DMSO) is 5.48 ± 0.34 and the protein stability index (treatment: MLN4924 1 uM, 8 h) was found to be 5.6 ± 0.28.
In the same order, the values of DLSKIIRTSSGTSREKTACAINKV [FAM98B] are 3.06 ± 0.27 and 3.19 ± 0.6.
For GSARSHASSRASENQSPSSSNYFS [ZBTB22], the protein stability index amounted to 4.28 ± 0.22 (treatment: DMSO) and 4.74 ± 0.2 (treatment: MLN4924 1 uM, 8 h).
With AVTLRCGHNFCRGCVSRCWEVQVS [TRIM35], the protein stability index (treatment: DMSO) worked out at 2.62 ± 0.12 and the protein stability index (treatment: MLN4924 1 uM, 8 h) came out at 2.33 ± 0.43.
In the same order, the values of MNDFGIKNMDQVAPVANSYRGTLK [ETS2] are 4.06 ± 0.31 and 4.02 ± 0.26.
The like results for FLHVRKATRAMGLLNTLSLAFVGG [TMEM175] were, in that order, 2.16 ± 0.59 and 1.98 ± 0.35.
The like results for SRKGELTPLPETGYWRVRLWNGDK [TRIM39] were, in that order, 2.63 ± 0.057 and 2.58 ± 0.36.
Consider RSEFTLMAKRIGKDLSNTFAKLEK [STX5], for which the protein stability index (treatment: DMSO) was determined as 2.51 ± 0.33 and the protein stability index (treatment: MLN4924 1 uM, 8 h) is 2.31 ± 0.33.
In the case of DKAVEIEELTYIIKQDINSLNKQI [STX5], the protein stability index by setting is: (treatment: DMSO) 2.91 ± 0.14; (treatment: MLN4924 1 uM, 8 h) 3.12 ± 0.56.
Consider DGKLFPSDGFRDCKKGDPKHGKRK [ELF3], for which the protein stability index came to 5.1 ± 0.29 (treatment: DMSO) and 5.38 ± 0.26 (treatment: MLN4924 1 uM, 8 h).
The like results for RFCSEIKSSKYGEGHQAWIVGIVE [SEPHS2] were, in that order, 2.23 ± 0.21 and 2.12 ± 0.37.
The like results for RLVELAGQSLLKDEALAIAALELL [PRAME] were, in that order, 2.17 ± 0.47 and 2.02 ± 0.44.
The like results for NQLLVADVKRLGKQNARFLTSMRR [STX11] were, in that order, 2.97 ± 0.079 and 3.08 ± 0.41.
As to KLYHQSKGPGAPQYPAGTQGEQLE [SPSB2], the protein stability index is, setting by setting: (treatment: DMSO) 4.72 ± 0.29; (treatment: MLN4924 1 uM, 8 h) 5 ± 0.32.
In the same order, the values of GKAATMEIPIHGNGEARQLPEDDG [ARFIP2] are 5.58 ± 0.15 and 5.34 ± 0.21.
The like results for GGGEGHQPAGNRRGQARRLAPNFR [BEX3] were, in that order, 4.93 ± 0.17 and 4.92 ± 0.26.
The like results for ELLDLKAGGFSIRNQKGEQVFRLA [MYORG] were, in that order, 2.32 ± 0.33 and 2.24 ± 0.48.
Turning to RQNLKLLVEETSCQQNMIQELIET [CEP70], the protein stability index runs as follows: (treatment: DMSO) 3.42 ± 0.16; (treatment: MLN4924 1 uM, 8 h) 3.43 ± 0.45.
In the same order, the values of AFSNRSKQLRRQMWWRGCKIKAIM [VAMP4] are 2.35 ± 0.082 and 2.44 ± 0.27.
In the same order, the values of PDDPEHLAARRQWRDECLMRLAKL [CRYL1] are 3.66 ± 0.6 and 3.83 ± 0.36.
As for YVLKYMESNAAQYSPEALASIQNH [EFHC1], the protein stability index is, setting by setting: (treatment: DMSO) 2.31 ± 0.14; (treatment: MLN4924 1 uM, 8 h) 2.35 ± 0.24.
In the same order, the values of SALEGRADTTTGSAAGPPLSEDDK [EHMT1] are 5.14 ± 0.83 and 5.38 ± 0.43.
The like results for KAKQEKVSAQYLSEIEMAKAQRDY [FLOT1] were, in that order, 4.54 ± 0.12 and 4.64 ± 0.18.
For the sequence MEKKSKPKNSVWKRLKSPFRKKKD [RIT1], the protein stability index is 3.69 ± 0.12 (treatment: DMSO) and 3.88 ± 0.3 (treatment: MLN4924 1 uM, 8 h).
For the sequence DCEMNSPQVPPSQPLRPWAGGDVP [DYRK1B], the protein stability index came to 4.32 ± 0.13 (treatment: DMSO) and 4.62 ± 0.15 (treatment: MLN4924 1 uM, 8 h).
The like results for AKKFRKAVTDLLGRRQRKSEKRRD [WASL] were, in that order, 3.88 ± 0.52 and 3.89 ± 0.2.
